Measured values taken from publication PMC8333356 (Nature Communications, 2021).

B1: Nb105 (VHH)
VHH: VQLVESGGGLVQAGGSLRLSCAVSGRTFSTYGMAWFRQAPGKERDFVATITRSGETTLYADSVKGRFTISRDNAKNTVYLQMNSLKIEDTAVYYCAVRRDSSWGYSRDLFEYDYWGQGTQVTVS
notes: Cloned in pET-21b(+); also called class II Nb; source: E. coli BL21 (DE3), purified (cobalt resin, Superdex 75)
B2: Nb36 (VHH)
VHH: VQLVESGGGLVQAGGSLTLTCAASGRTFSSETMDMGWFRQAPGKEREFVAADSWNDGSTYYADSVKGRFTISRDSAKNTLYLQMNSLKPEDTAVYYCAAETYSIYEKDDSWGYWGQGTQVTVS
notes: Cloned in pET-21b(+); also called class III Nb; source: E. coli BL21 (DE3), purified (cobalt resin, Superdex 75)

Target: receptor binding domain (RBD) of SARS-CoV-2 spike (SARS-CoV-2 Wuhan-Hu-1, UniProt P0DTC2)
Assay: cryo-EM structure
Settings: both partners purified

| Binder | binding result |
| --- | --- |
| B1 | binds |
| B2 | binds |
